# Results published in PMC3621757, “Structural Plasticity in Human Heterochromatin Protein 1β” (PLoS ONE, 2013).
# Target: the molecule itself
# Test: small angle X-ray scattering (SAXS); hHP1β (2–185) at 1.0, 2.0 and 5.0 mg/mL, 283 K; 20 mM sodium phosphate pH 6.5, 50 mM NaCl, 2 mM DTT; MW from forward scattering against bovine serum albumin
protein,measurement,value
"full-length human Heterochromatin Protein 1β, hHP1β (2–185) (natural protein, The His-tag is TEV-protease-cleavable; NMR samples were 15N-perdeuterated; also called full-length hHP1β; source: pET16b expression vector (Novagen); additional size-exclusion chromatography on Superdex200 for SAXS and DLS samples) not shown",stoichiometry N,2
